# Source: patent publication US20180155451A1 (published 2018)
# T1: FcγRIIa R (extracellular domain with a His tag at the C terminus) (human, UniProt P12318 34-217)
# T1 construct: extracellular domain; expressed in FreeStyle293 cells; also called FcgRIIa R; FcγRIIa type R; not shown: His tag at the C terminus
# T1 sequence (looked up): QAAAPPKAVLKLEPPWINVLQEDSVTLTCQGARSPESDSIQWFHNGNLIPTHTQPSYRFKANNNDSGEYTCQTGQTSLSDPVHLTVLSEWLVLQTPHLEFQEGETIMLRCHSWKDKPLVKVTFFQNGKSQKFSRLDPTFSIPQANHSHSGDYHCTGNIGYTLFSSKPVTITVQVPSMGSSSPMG
# Target: T1, FcγRIIa R (extracellular domain with a …)
# Assay: SPR Biacore, relative binding
row,He/Con_2aR,Binder
1,111 % of GpH7-A5/GpH7-B3/GpL16-k0 (=100),"GpH7-A5/GpH7-B3 variant S239_18N/GpL16-k0 (antibody, human IgG1, kappa, heterodimerized; mutation in one H chain; also called He Ab) heavy 1: not shown heavy 2: not shown light: DIVMTQSPLSLPVTPGEPASISCQASESLVHSNRNTYLHWYLQKPGQSPQLLIYKVSNRFSGVPDRFSGSGSGTDFTLKISRVEAEDVGVYYCSQNTHVPPTFGQGTKVEIERTVAAPSVFIFPPSDEQLKSGTASVVCLLNNFYPREAKVQWKVDNALQSGNSQESVTEQDSKDSTYSLSSTLTLSKADYEKHKVYACEVTHQGLSSPVTKSFNRGEC"
2,106 % of GpH7-A5/GpH7-B3/GpL16-k0 (=100),"GpH7-A5/GpH7-B3 variant K334_10E/GpL16-k0 (antibody, human IgG1, kappa, heterodimerized; mutation in one H chain; also called He Ab) heavy 1: not shown heavy 2: not shown light: DIVMTQSPLSLPVTPGEPASISCQASESLVHSNRNTYLHWYLQKPGQSPQLLIYKVSNRFSGVPDRFSGSGSGTDFTLKISRVEAEDVGVYYCSQNTHVPPTFGQGTKVEIERTVAAPSVFIFPPSDEQLKSGTASVVCLLNNFYPREAKVQWKVDNALQSGNSQESVTEQDSKDSTYSLSSTLTLSKADYEKHKVYACEVTHQGLSSPVTKSFNRGEC"
3,116 % of GpH7-A5/GpH7-B3/GpL16-k0 (=100),"GpH7-A5/GpH7-B3 variant S267_03V/GpL16-k0 (antibody, human IgG1, kappa, heterodimerized; mutation in one H chain; also called He Ab) heavy 1: not shown heavy 2: not shown light: DIVMTQSPLSLPVTPGEPASISCQASESLVHSNRNTYLHWYLQKPGQSPQLLIYKVSNRFSGVPDRFSGSGSGTDFTLKISRVEAEDVGVYYCSQNTHVPPTFGQGTKVEIERTVAAPSVFIFPPSDEQLKSGTASVVCLLNNFYPREAKVQWKVDNALQSGNSQESVTEQDSKDSTYSLSSTLTLSKADYEKHKVYACEVTHQGLSSPVTKSFNRGEC"
4,117 % of GpH7-A5/GpH7-B3/GpL16-k0 (=100),"GpH7-A5/GpH7-B3 variant L328_13S/GpL16-k0 (antibody, human IgG1, kappa, heterodimerized; mutation in one H chain; also called He Ab) heavy 1: not shown heavy 2: not shown light: DIVMTQSPLSLPVTPGEPASISCQASESLVHSNRNTYLHWYLQKPGQSPQLLIYKVSNRFSGVPDRFSGSGSGTDFTLKISRVEAEDVGVYYCSQNTHVPPTFGQGTKVEIERTVAAPSVFIFPPSDEQLKSGTASVVCLLNNFYPREAKVQWKVDNALQSGNSQESVTEQDSKDSTYSLSSTLTLSKADYEKHKVYACEVTHQGLSSPVTKSFNRGEC"
5,173 % of GpH7-A5/GpH7-B3/GpL16-k0 (=100),"GpH7-A5/GpH7-B3 variant S267_09D/GpL16-k0 (antibody, human IgG1, kappa, heterodimerized; mutation in one H chain; also called He Ab) heavy 1: not shown heavy 2: not shown light: DIVMTQSPLSLPVTPGEPASISCQASESLVHSNRNTYLHWYLQKPGQSPQLLIYKVSNRFSGVPDRFSGSGSGTDFTLKISRVEAEDVGVYYCSQNTHVPPTFGQGTKVEIERTVAAPSVFIFPPSDEQLKSGTASVVCLLNNFYPREAKVQWKVDNALQSGNSQESVTEQDSKDSTYSLSSTLTLSKADYEKHKVYACEVTHQGLSSPVTKSFNRGEC"
6,119 % of GpH7-A5/GpH7-B3/GpL16-k0 (=100),"GpH7-A5/GpH7-B3 variant L328_14T/GpL16-k0 (antibody, human IgG1, kappa, heterodimerized; mutation in one H chain; also called He Ab) heavy 1: not shown heavy 2: not shown light: DIVMTQSPLSLPVTPGEPASISCQASESLVHSNRNTYLHWYLQKPGQSPQLLIYKVSNRFSGVPDRFSGSGSGTDFTLKISRVEAEDVGVYYCSQNTHVPPTFGQGTKVEIERTVAAPSVFIFPPSDEQLKSGTASVVCLLNNFYPREAKVQWKVDNALQSGNSQESVTEQDSKDSTYSLSSTLTLSKADYEKHKVYACEVTHQGLSSPVTKSFNRGEC"
7,110 % of GpH7-A5/GpH7-B3/GpL16-k0 (=100),"GpH7-A5/GpH7-B3 variant P331_20W/GpL16-k0 (antibody, human IgG1, kappa, heterodimerized; mutation in one H chain; also called He Ab) heavy 1: not shown heavy 2: not shown light: DIVMTQSPLSLPVTPGEPASISCQASESLVHSNRNTYLHWYLQKPGQSPQLLIYKVSNRFSGVPDRFSGSGSGTDFTLKISRVEAEDVGVYYCSQNTHVPPTFGQGTKVEIERTVAAPSVFIFPPSDEQLKSGTASVVCLLNNFYPREAKVQWKVDNALQSGNSQESVTEQDSKDSTYSLSSTLTLSKADYEKHKVYACEVTHQGLSSPVTKSFNRGEC"
8,131 % of GpH7-A5/GpH7-B3/GpL16-k0 (=100),"GpH7-A5/GpH7-B3 variant L235_20W/GpL16-k0 (antibody, human IgG1, kappa, heterodimerized; mutation in one H chain; also called He Ab) heavy 1: not shown heavy 2: not shown light: DIVMTQSPLSLPVTPGEPASISCQASESLVHSNRNTYLHWYLQKPGQSPQLLIYKVSNRFSGVPDRFSGSGSGTDFTLKISRVEAEDVGVYYCSQNTHVPPTFGQGTKVEIERTVAAPSVFIFPPSDEQLKSGTASVVCLLNNFYPREAKVQWKVDNALQSGNSQESVTEQDSKDSTYSLSSTLTLSKADYEKHKVYACEVTHQGLSSPVTKSFNRGEC"
9,104 % of GpH7-A5/GpH7-B3/GpL16-k0 (=100),"GpH7-A5/GpH7-B3 variant P271_08L/GpL16-k0 (antibody, human IgG1, kappa, heterodimerized; mutation in one H chain; also called He Ab) heavy 1: not shown heavy 2: not shown light: DIVMTQSPLSLPVTPGEPASISCQASESLVHSNRNTYLHWYLQKPGQSPQLLIYKVSNRFSGVPDRFSGSGSGTDFTLKISRVEAEDVGVYYCSQNTHVPPTFGQGTKVEIERTVAAPSVFIFPPSDEQLKSGTASVVCLLNNFYPREAKVQWKVDNALQSGNSQESVTEQDSKDSTYSLSSTLTLSKADYEKHKVYACEVTHQGLSSPVTKSFNRGEC"
10,135 % of GpH7-A5/GpH7-B3/GpL16-k0 (=100),"GpH7-A5/GpH7-B3 variant S267_19Q/GpL16-k0 (antibody, human IgG1, kappa, heterodimerized; mutation in one H chain; also called He Ab) heavy 1: not shown heavy 2: not shown light: DIVMTQSPLSLPVTPGEPASISCQASESLVHSNRNTYLHWYLQKPGQSPQLLIYKVSNRFSGVPDRFSGSGSGTDFTLKISRVEAEDVGVYYCSQNTHVPPTFGQGTKVEIERTVAAPSVFIFPPSDEQLKSGTASVVCLLNNFYPREAKVQWKVDNALQSGNSQESVTEQDSKDSTYSLSSTLTLSKADYEKHKVYACEVTHQGLSSPVTKSFNRGEC"
11,135 % of GpH7-A5/GpH7-B3/GpL16-k0 (=100),"GpH7-A5/GpH7-B3 variant S239_10E/GpL16-k0 (antibody, human IgG1, kappa, heterodimerized; mutation in one H chain; also called He Ab) heavy 1: not shown heavy 2: not shown light: DIVMTQSPLSLPVTPGEPASISCQASESLVHSNRNTYLHWYLQKPGQSPQLLIYKVSNRFSGVPDRFSGSGSGTDFTLKISRVEAEDVGVYYCSQNTHVPPTFGQGTKVEIERTVAAPSVFIFPPSDEQLKSGTASVVCLLNNFYPREAKVQWKVDNALQSGNSQESVTEQDSKDSTYSLSSTLTLSKADYEKHKVYACEVTHQGLSSPVTKSFNRGEC"
